Columns and labels:
[1] = biological target: SRBD subdomain of SARS-CoV-2 S protein (SARS-CoV-2) (UniProt P0DTC2); experiment: ELISA on coated SRBD
[2] = biological target: SARS-CoV S2Pecto antigen (SARS-CoV) (UniProt P59594); experiment: ELISA on coated SARS-CoV S2Pecto

In the case of “rCR3022 (recombinant form of the cross-reactive SARS-CoV SRBD mAb CR3022) (antibody)”, the EC50 [1] was 1.1 ng/mL and the EC50 [2] was 5.2 ng/mL.
